Publication PMC8699916, “Synthesis of Human Bone Morphogenetic Protein-2 (hBMP-2) in E. coli Periplasmic Space: Its Characterization and Preclinical Testing” (Cells, 2021)

Legend:
[1] = target: the molecule itself; assay: non-reducing SDS-PAGE with Western blot; 15% gel, non-reducing conditions, semi-dry transfer to nitrocellulose, anti-hBMP-2 rabbit IgG 1:2000; periplasmic fluid of W3110 grown at 30 °C and 42 °C
[2] = target: the molecule itself; assay: non-reducing SDS-PAGE; 15% polyacrylamide gel, non-reducing conditions, Coomassie Brilliant Blue G-250 staining; bought reference preparation

B1: periplasmic human bone morphogenetic protein-2 (hBMP-2 Biosintesis) (natural protein, UniProt P12643 283-396, looked up)
chain: QAKHKQRKRLKSSCKRHPLYVDFSDVGWNDWIVAPPGYHAFYCHGECPFPLADHLNSTNHAIVQTLVNSVNSKIPKACCVPTELSAISMLYLDENEKVVLKNYQDMVVEGCGCR
notes: authentic form without the initial methionine; monomer ~13 kDa, dimer ~26 kDa; also called authentic hBMP-2; our hBMP-2; source: E. coli W3110 with pλPL-DsbA-BMP-2, periplasmic fluid extracted by osmotic shock
stoichiometry N [1]: 2

B2: met-hBMP-2 reference preparation from GenScript (natural protein, human)
chain: MQAKHKQRKRLKSSCKRHPLYVDFSDVGWNDWIVAPPGYHAFYCHGECPFPLADHLNSTNHAIVQTLVNSVNSKIPKACCVPTELSAISMLYLDENEKVVLKNYQDMVVEGCGCR
notes: initial methionine typical of the cytoplasmic product, told in words (met-hBMP-2); human bone morphogenetic protein-2; vendor declares dimeric form (~26 kDa); Commercial product; also called hBMP-2 GenScript; GenScript hBMP-2; source: bought: GenScript (cytoplasmic, E. coli-derived)
stoichiometry N [2]: 2
